Experimental findings from publication PMC3260217 are described below.

The data set deals with NP wt (Influenza A virus H1N1 (A/WSN/33), UniProt P15682 1-498). As to the kind of experiment: SPR. As to conditions: protein: recombinant; tags: C-terminal 6xHis; label: 5'-biotin; single strand.

As a reminder, the Kd is a measure of binding affinity in units of concentration.

In the case of UUUGUUACACACACACACGCUGUG (ssRNA) [Flu1 RNA 24-mer], the Kd came to 41 ± 7 nM.
